Experimental data taken from US20050042220A1 (GENETICS INSTITUTE, published 2005).
Values belong to the binder of their own block, whether it stands above or below them.

Experiments:
[1] = biological target: T1, IL-22R-Fc/IL-10R2-Fc heterodimer from co-expressing CHO cells (human, UniProt Q8N6P7 16-228; Q08334 20-220); assay: BIAcore, receptor-Fc from conditioned medium captured by anti-human IgG, IL-22 injected, 1:1 model
T1 construct: extracellular domain; also called IL-22R/IL-10R2-Fc heterodimer; IL-22R-Fc/IL-10R2-Fc complex; not shown: human IgG1 Fc
T1 sequence 1: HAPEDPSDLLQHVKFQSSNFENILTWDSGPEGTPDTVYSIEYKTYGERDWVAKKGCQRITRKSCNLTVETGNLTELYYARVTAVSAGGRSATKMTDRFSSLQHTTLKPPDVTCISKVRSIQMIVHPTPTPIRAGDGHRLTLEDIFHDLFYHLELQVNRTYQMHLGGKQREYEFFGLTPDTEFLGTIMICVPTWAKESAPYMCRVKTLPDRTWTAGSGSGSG
T1 sequence 2: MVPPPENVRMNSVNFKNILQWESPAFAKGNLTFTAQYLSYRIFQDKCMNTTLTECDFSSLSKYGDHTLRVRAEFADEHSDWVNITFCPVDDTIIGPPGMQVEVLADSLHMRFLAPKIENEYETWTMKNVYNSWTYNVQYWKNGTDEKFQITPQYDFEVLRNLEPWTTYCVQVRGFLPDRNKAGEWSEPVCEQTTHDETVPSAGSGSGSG
Protocol: (§1) The surface was activated with EDC/NHS. The capturing antibody was injected at a concentration of 50 ug/ml in sodium acetate buffer (pH 4.5), the Protein-A was injected at a concentration of 50 ug/ml in sodium acetate buffer (pH 4.0), or test protein was directly injected at a concentration of 0.01-1 ug/ml in sodium acetate buffer (pH 5.0). The immobilization was done using the wizard tools with aim of 10.000 resonance units (RUs) for the anti-hu or anti-rat IgG, 3000 (RUs) for the Protein-A and […] (RUs) for the directly immobilized testing protein. Remaining activated groups were blocked with 1.0 M ethanolamine (pH 8.0). As control the first flow cell was used as reference surface to correct for bulk refractive index, matrix effects and non-specific binding, the second, third and four flow cells were coated with the capturing molecule.
(§2) For kinetic analysis, condition media containing IL-22R-Fc, IL-10R2-Fc, IL-22R-Fc/IL-10R2-Fc receptor complex or IL-22BP-Fc protein were captured onto the anti-human IgG antibody or protein A surfaces. The rat antibodies were captured onto the anti-rat IgG antibody surface, by injecting 60 ul of a 400 ng/ml solution. […] The dissociation phase was monitored in HBS/EP buffer for 10 minutes at the same flow rate followed by 5 ul injection of 0.1% TFA and 5 ul injection of glycine pH 1.5 to regenerate a fully active capturing surface. […]

[2] = biological target: T2, human IL-22R extracellular domain-Fc fusion homodimer (human, UniProt Q8N6P7 16-228); assay: as above
T2 construct: extracellular domain; Used as CHO conditioned medium, not purified; also called IL-22R-Fc; IL-22RECD-Fc; not shown: human IgG1 Fc
T2 sequence: T1 sequence 1
Protocol: as §1, §2

[3] = biological target: T3, human IL-22 binding protein-Fc fusion (human, UniProt Q969J5-2 22-231, limits assumed); assay: BIAcore, Fc fusion from conditioned medium captured by anti-human IgG, IL-22 injected, 1:1 model
T3 construct: Fc fusion homodimer, used as CHO conditioned medium; also called IL-22BP-Fc; huIL22BP-huFc; not shown: human IgG1 Fc
T3 sequence: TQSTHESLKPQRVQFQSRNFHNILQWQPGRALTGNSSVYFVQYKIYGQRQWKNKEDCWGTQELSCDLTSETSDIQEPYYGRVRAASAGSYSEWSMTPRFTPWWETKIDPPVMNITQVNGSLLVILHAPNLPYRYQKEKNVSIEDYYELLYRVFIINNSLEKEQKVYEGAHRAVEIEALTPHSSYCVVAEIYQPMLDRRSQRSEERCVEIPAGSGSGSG
Protocol: as §1, §2

[4] = biological target: T2, human IL-22R extracellular domain-Fc …; assay: sandwich ELISA: rabbit anti-hIL-22R coat, 1:1 mixture of IL-22R-Fc and IL-10R2-Fc media titrated, biotinylated goat anti-hIL-10R2 then streptavidin-HRP, A450
Protocol: Monomeric IL-22RECD-Fc and IL-10R2ECD-Fc fusions were determined to have molecular weights of ˜60 kD and ˜85 kD, respectively. Reduced and non-reduced conditioned media (CM) from CHO cells expressing either or both receptor Fc fusions was separated on SDS-PAGE gels and blotted to a membrane which was then probed with polyclonal antibodies directed against either human IgG Fc, IL-22R or IL-10R2. More specifically, in FIG. 7A, conditioned media from CHO cells expressing either IL-22R-Fc, IL-10R2-Fc or both receptor Fc were separated on 8% polyacyrlamide gels under both reduced (+βME) and non-reduced (−βME) conditions and transferred to membrane blots. Western blots were carried out using any of anti-human IgG1, anti-hIL-22R or anti-hIL-10R2 antibodies. For anti-hIgG detection of a blot, 4 ng total Fc fusion in CM was loaded in each lane. For anti-IL-22R and anti-IL-10R2 antibody detection, 16 ng total Fc fusion in CM from co-expressing CHO was used. […] The bound receptors were detected using a biotinylated goat anti-human IL-10R2 antibody, followed by streptavidin-HRP.
The presence of heterodimers in the CM from CHO cells was verified by sandwich ELISA, using antibodies specific for each chain of the heterodimer. Conditioned media was added to wells coated with an IL-22R polyclonal antibody and bound protein was then detected with a biotinylated IL-10R2 polyclonal antibody. […]

Kd [1]: 1.48 nM
Kd [2]: 41 nM
Kd [3]: 3.37 nM
B1: N terminal His/Flag tagged human IL-22 (ligand)
chain: GSGHHHHHHGSGDYKDDDDKAPISSHCRLDKSNFQQPYITNRTFMLAKEASLADNNTDVRLIGEKLFHGVSMSERCYLMKQVLNFTLEEVLFPQSDRFQPYMQEVVPFLARLSNRLSTCHIEGDDLHIQRNVQKLKDTVKKLGESGEIKAIGELDLLFMSLRNACI
notes: Made in CHO cells, extensively N-glycosylated; also called human h/f tagged IL-22; hIL-22

B2: human IL-10R2 extracellular domain-Fc fusion homodimer (Fc fusion)
chain: T1 sequence 2
notes: extracellular domain; Used as CHO conditioned medium, not purified; also called IL-10R2-Fc; IL-10R2ECD-Fc; not shown: human IgG1 Fc
binding result [4]: no binding (tested: 100 ng/ml total Fc fusion)
